The target in experiment [1] is E2-E479A (Hepatitis E virus) (UniProt Q81871). The experiment is described as follows: non-reducing SDS-PAGE; loading buffer with only 0.1% SDS, no BME, sample not boiled; compared with MW markers.
Experiment [2] has as its target E2-Y485A (Hepatitis E virus) (UniProt Q81871). The description is as above.
The target in experiment [3] is E2-D496A (Hepatitis E virus) (UniProt Q81871). Described as above.
Experiment [4] addresses E2-I529A (Hepatitis E virus) (UniProt Q81871). The description is as above.
Experiment [5] deals with HEV capsid protein domain E2s (ORF2 aa455-602) (Hepatitis E virus) (UniProt Q81871). Put plainly: SEC; Superdex 75 10/300GL in phosphate-buffered saline pH 7.4, 0.5 ml/min, against molecular weight standards. For orientation: Size exclusion chromatography separates by hydrodynamic size, large species first.
Experiment [6] has the same target. Put plainly: AUC; sedimentation velocity; 20°C; E2s 1 mg/ml in phosphate-buffered saline pH 7.4; 60,000 rpm; c(s) method.
For experiment [7] the target is unchanged. Put plainly: AUC; sedimentation equilibrium; 20°C; phosphate-buffered saline pH 7.4; E2s at 0.69, 0.36 and 0.14 OD; 18,000, 21,000 and 24,000 rpm; single ideal species model and self-association monomer-dimer model; dimer to monomers.
The target in experiment [8] is E2-K534A (Hepatitis E virus) (UniProt Q81871). Put plainly: non-reducing SDS-PAGE; loading buffer with only 0.1% SDS, no BME, sample not boiled; compared with MW markers.
Experiment [9] addresses E2s-Y557A (Hepatitis E virus) (UniProt Q81871). Put plainly: AUC; sedimentation equilibrium; 20°C; phosphate-buffered saline pH 7.4; E2s at 0.69, 0.36 and 0.14 OD; 18,000, 21,000 and 24,000 rpm; single ideal species model and self-association monomer-dimer model; dimer to monomers.
Experiment [10] deals with E2-R542A (Hepatitis E virus) (UniProt Q81871). The experiment is described as follows: not stated; 'in solution'; the paragraph names non-reducing SDS-PAGE, analytical ultracentrifugation and gel filtration for the mutants without telling which was used here.
Experiment [11] addresses HEV capsid protein E2 (ORF2 aa394-606), wild type (Hepatitis E virus, UniProt Q81871 394-606). The experiment is described as follows: non-reducing SDS-PAGE; loading buffer with only 0.1% SDS, no BME, sample not boiled; compared with MW markers. As to conditions: both partners purified.

As a reminder, the stoichiometry N is the number of molecules, sites or subunits per partner or assembly. In turn, “E2-E479A (from UniProt Q81871 394-606) (domain or fragment)” registered a stoichiometry N in experiment [1] of 2. Molecule “E2-Y485A (from UniProt Q81871 394-606) (domain or fragment)” displayed a stoichiometry N in experiment [2] of 2. “E2-D496A (from UniProt Q81871 394-606) (domain or fragment)” registered a stoichiometry N in [3] of 2. In turn, “E2-I529A (from UniProt Q81871 394-606) (domain or fragment)” yielded a stoichiometry N in experiment [4] of 2. One may read the Kd as a measure of binding affinity in units of concentration. Lower therefore signals tighter binding. Take “HEV capsid protein domain E2s (ORF2 aa455-602) (from UniProt Q81871 455-602) (domain or fragment)”: the stoichiometry N in experiment [5], in [6] and in [7] was 2 throughout. This molecule had a dissociation constant Kd in experiment [7] of 397 nM. Turning to “E2-K534A (from UniProt Q81871 394-606) (domain or fragment)”, in experiment [8], the stoichiometry N stood at 2. The molecule “E2s-Y557A (from UniProt Q81871 455-602) (domain or fragment)” returned a stoichiometry N in [9] of 2. In turn, “E2-R542A (from UniProt Q81871 394-606) (domain or fragment)” came in with a stoichiometry N in [10] of 2.

B1: HEV capsid protein E2 (ORF2 aa394-606), wild type (domain or fragment)
chain: MQLFYSRPVVSANGEPTVKLYTSVENAQQDKGIAIPHDIDLGESRVVIQDYDNQHEQDRPTPSPAPSRPFSVLRANDVLWLSLTAAEYDQSTYGSSTGPVYVSDSVTLVNVATGAQAVARSLDWTKVTLDGRPLSTIQQHSKTFFVLPLRGKLSFWEAGTTKAGYPYNYNTTASDQLLVENAAGHRVAISTYTTSLGAGPVSISAVAVLAPHSA
modifications: Wild-type E2, aa394-606, with start Met. The E2s gene was amplified from this E2 gene, so aa455-602 are taken from 3GGQ; the flanks come from genotype 1 Q81871 because the strain is not printed. …
With B1, the “stoichiometry N” value in experiment [11] came to 2.

These data come from article PMC2714988, “Dimerization of Hepatitis E Virus Capsid Protein E2s Domain Is Essential for Virus–Host Interaction” (PLoS Pathogens, 2009).
